Molecular target: MT1-MMP cytoplasmic tail peptide (MMP-CTP) (Homo sapiens, Fe(II)-bound)
Test: ITC

Kd: ~10 µM
B1: acireductone dioxygenase (Fe-HsARD) (protein)
chain: MVQAWYMDDAPGDPRQPHRPDPGRPVGLEQLRRLGVLYWKLDADKYENDPELEKIRRERNYSWMDIITICKDKLPNYEEKIKMFYEEHLHLDDEIRYILDGSGYFDVRDKEDQWIRIFMEKGDMVTLPAGIYHRFTVDEKNYTKAMRLFVGEPVWTAYNRPADHFEARGQYVKFLAQTA
